Results from patent publication US11267842B2, “Enzymatic modification of nucleic acids” (The Regents of the University of California, priority 2015, dated 2022).

Substrate: CN1/C(=C/c2cc[n+](CCCCCC(=O)NCCOCCOCCOCCNCc3c[nH]c4nc(N)[nH]c(=O)c34)c3ccccc23)Sc2ccccc21
Assay: Estimation of PreQ1-TO substrate kinetics with ECY-A1 catalyzed by TGT
Assay type: biochemical, E. coli
Conditions: other: estimated from initial rates by fluorescence, 10 μM ECY-A1, 100 nM TGT, 37° C.
Protocol: Estimation of PreQ1-TO substrate kinetics with ECY-A1. An estimation of PreQ1-TO substrate kinetics with ECY-A 1 was performed under similar concentrations and conditions to that found from previous kinetic analyses using radiolabeled substrates.^2 A triplicate set of 20 μL reactions was analyzed using a Tecan Saphire-II plate reader in a Greiner 384 well flat bottom plate (VWR, CAT# 89089−584). Each well was prepped with 10 μM ECY-A 1 and a variable amount (from 100 μM to 10 nM in serial ⅓ dilutions) of PreQ1-TO in TGT reaction buffer. The plate was covered and allowed to warm up to 37° C. for 10 minutes. […] Each well was then covered with 10 μL of light mineral oil (to prevent evaporation of water) and the plate was immediately subjected to a fluorescence reading for the first kinetic time point at 37° C. Each well was monitored with an excitation of 501 nm and emission of 531. […] The gain was held fixed and the integration time set to 1 second with 10 reads averaged to each data point collected. The sample was monitored for 30 minutes at 37° C. with a reading taken every 2 minutes. The data was worked up using an ECY-A1-PreQ1-TO calibration curve to convert fluorescence into concentration of product in each sample for each time point to achieve an estimation of the initial rate of each reaction in M^−1/s^−1. […] This curve was analyzed with Graph Pad Prism v. […]

B1: bacterial (E.coli) tRNA guanine transglycosylase (TGT) (Escherichia coli K-12) (protein)
chain: MKFELDTTDGRARRGRLVFDRGVVETPCFMPVGTYGTVKGMTPEEVEATGAQIILGNTFHLWLRPGQEIMKLHGDLHDFMQWKGPILTDSGGFQVFSLGDIRKITEQGVHFRNPINGDPIFLDPEKSMEIQYDLGSDIVMIFDECTPYPADWDYAKRSMEMSLRWAKRSRERFDSLGNKNALFGIIQGSVYEDLRDISVKGLVDIGFDGYAVGGLAVGEPKADMHRILEHVCPQIPADKPRYLMGVGKPEDLVEGVRRGIDMFDCVMPTRNARNGHLFVTDGVVKIRNAKYKSDTGPLDPECDCYTCRNYSRAYLHHLDRCNEILGARLNTIHNLRYYQRLMAGLRKAIEEGKLESFVTDFYQRQGREVPPLNVDHHHHHH
notes: His6 (C); made in house; host or cells: E. coli BL21
Km: 9.8 µM | kcat: 0.0016 s⁻¹
